# Reference: patent publication US7456007B1, “β-secretase enzyme compositions and methods” (Elan Pharmaceuticals, Inc., priority 1998, dated 2008)
# [ ]: non-standard residue; d: D form. Sta = CC(C)C[C@H](N)[C@@H](O)CC(=O)O
# Target: β-secretase (Homo sapiens, UniProt P56817)
# Experiment: β-secretase inhibition, assay not specified
# Assay type: biochemical
# β-secretase, sequence (P56817 46-501): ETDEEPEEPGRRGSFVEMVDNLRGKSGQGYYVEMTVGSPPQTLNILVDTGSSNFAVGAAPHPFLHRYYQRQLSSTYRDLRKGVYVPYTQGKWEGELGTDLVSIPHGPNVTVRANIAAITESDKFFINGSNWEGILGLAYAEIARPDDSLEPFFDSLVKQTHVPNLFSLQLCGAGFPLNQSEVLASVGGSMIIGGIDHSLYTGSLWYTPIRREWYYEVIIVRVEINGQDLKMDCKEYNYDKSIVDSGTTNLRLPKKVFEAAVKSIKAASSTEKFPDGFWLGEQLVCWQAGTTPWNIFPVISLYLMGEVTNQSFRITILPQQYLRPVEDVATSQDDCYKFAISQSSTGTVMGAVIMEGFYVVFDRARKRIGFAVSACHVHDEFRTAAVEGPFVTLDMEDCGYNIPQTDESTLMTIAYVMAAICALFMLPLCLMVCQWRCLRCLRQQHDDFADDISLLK
substance,measurement,value
NH2-KTEEISEVN[sta]VAEF-COOH (H-KTEEISEVN[Sta]VAEF-OH) [P10-P4′staD→V],inhibitor of the enzyme (in words),reasonably potent inhibitor
